Results reported in US7049400.

Target: MD9 (mammalian version of D9 mutant, EGFP-DEVD) (Aequorea victoria (Water jellyfish) (Mesonema victoria)) [GFP: P42212]
Assay: cell-based or functional assay

activated caspase-3 in HeLa cells induced to apoptosis by TNFα and cycloheximide (from UniProt P42574 29-277) (enzyme)
decrease in relative fluorescence intensity of mutant GFP in comparison to wild type GFP: 50%
